For test [1], the system named is thrombin catalyzed release of fibrinopeptides A and B. Kind of test: Release of fibrinopeptides by thrombin, HPLC. The class given is biochemical. The conditions noted are these: for Percentage of FpB released: Fg 0.3 μM. The procedure: Release of Fibrinopeptides by Thrombin—The thrombin catalyzed release of fibrinopeptides A and B was analyzed as follows. Fg solutions were diluted to 0.3 μM in 20 mM HEPES (pH 7.4), 150 mM NaCl, 5 mM ε-aminocapriotic acid, and 1.0 mM CaCl2. ε-aminocapriotic acid was included to inhibit any possible plasmin contaminant activity. […] The tubes were mixed by inversion and 500 μl aliquots were removed for the 15 and 60 min time points. The aliquots were incubated at room temperature and then immersed in boiling water for 15 min to halt the reaction. The aliquots were stored on ice for the remainder of the time course. At the end of the reaction the samples were centrifuged for 15 min at 4° C., and the supernatants were removed and stored at −20° C. overnight prior to analysis by high performance liquid chromatography.
The fibrinopeptides released were monitored by reverse phase HPLC essentially as described (19). The samples were loaded onto a Waters Delta-Pak C18 column equilibrated with buffer A (25 mM NaH2PO4/Na2HPO4, pH 6.0). Fibrinopeptides were eluted with a linear gradient from 100% buffer A to 40% buffer B (Buffer A with 50% acetonitrile) and monitored by absorbance at 205 nm. Fibrinopeptide peak area was determined using the software Waters Millennium^32.

Test [2] has as its target Fg Bβ chain peptide β1-25 (Homo sapiens, UniProt P02675). The conditions noted are these: read-out: KD for interaction with peptide β1-25; 10 nM fluorescein-labeled β1-25, 3 h, room temperature. The procedure: Fluorescence Polarization—Fluorescence polarization was used to determine the equilibrium dissociation constant (KD) for the interaction of rSdrG(50-597) with peptide β1-25. The peptide was labeled with fluorescein as previously described (18). Increasing concentrations of rSdrG(50-597) in PBS, pH 7.5, were incubated with 10 nM labeled peptide for 3 h in the dark at room temperature. Reactions were allowed to reach equilibrium. Polarization measurements were taken with a Luminescence Spectrometer LS50B (Perkin Elmer) using FL WinLab software (Perkin Elmer). Binding data was analyzed by nonlinear regression used to fit a binding function as defined by the following equation: [formula]

In another test the target is T1, immobilized Fg (Homo sapiens, UniProt P02675).
T1 construct: purchased Enzyme Research Labs
T1 sequence (P02675 31-491): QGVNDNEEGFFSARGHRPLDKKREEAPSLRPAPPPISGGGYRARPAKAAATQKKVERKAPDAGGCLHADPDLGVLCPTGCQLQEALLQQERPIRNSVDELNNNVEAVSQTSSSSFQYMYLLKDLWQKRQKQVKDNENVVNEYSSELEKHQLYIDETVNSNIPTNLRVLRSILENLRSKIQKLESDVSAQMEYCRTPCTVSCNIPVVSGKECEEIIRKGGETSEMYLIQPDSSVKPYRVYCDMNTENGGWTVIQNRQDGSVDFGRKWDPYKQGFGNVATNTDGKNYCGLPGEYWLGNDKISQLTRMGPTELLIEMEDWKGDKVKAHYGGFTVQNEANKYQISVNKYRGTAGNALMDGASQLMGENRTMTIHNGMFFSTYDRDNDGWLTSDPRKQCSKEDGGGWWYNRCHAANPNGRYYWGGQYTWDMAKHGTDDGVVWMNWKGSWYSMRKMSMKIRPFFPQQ
T1 sequence (P02671 20-629 partner limits assumed): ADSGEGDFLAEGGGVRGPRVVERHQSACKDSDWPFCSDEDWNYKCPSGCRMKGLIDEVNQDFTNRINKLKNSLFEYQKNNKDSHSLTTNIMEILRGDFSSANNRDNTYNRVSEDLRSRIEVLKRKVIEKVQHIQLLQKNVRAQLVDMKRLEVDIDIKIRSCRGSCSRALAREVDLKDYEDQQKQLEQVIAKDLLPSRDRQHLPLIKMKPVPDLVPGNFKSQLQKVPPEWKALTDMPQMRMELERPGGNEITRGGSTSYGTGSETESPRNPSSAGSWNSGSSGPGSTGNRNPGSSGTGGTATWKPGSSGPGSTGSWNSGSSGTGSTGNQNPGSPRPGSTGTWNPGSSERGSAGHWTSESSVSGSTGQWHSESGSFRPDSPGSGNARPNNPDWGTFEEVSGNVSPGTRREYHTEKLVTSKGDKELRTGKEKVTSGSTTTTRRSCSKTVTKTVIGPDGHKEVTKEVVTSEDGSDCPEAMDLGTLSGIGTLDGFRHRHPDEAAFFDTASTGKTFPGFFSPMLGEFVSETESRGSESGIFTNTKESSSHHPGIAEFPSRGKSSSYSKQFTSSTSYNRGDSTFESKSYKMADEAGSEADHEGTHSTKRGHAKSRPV
T1 sequence (P02679 27-433 partner limits assumed): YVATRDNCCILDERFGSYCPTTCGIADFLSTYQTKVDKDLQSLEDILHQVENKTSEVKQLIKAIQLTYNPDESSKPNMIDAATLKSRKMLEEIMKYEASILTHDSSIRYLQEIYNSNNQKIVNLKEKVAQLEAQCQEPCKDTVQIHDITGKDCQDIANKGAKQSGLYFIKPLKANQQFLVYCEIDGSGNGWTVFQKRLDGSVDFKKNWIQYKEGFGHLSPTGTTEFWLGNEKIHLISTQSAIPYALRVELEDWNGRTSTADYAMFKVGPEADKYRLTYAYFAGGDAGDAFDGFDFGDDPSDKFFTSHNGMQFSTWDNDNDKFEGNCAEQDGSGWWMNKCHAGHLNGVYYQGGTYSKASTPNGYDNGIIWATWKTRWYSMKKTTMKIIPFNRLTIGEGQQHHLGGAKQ
Nature of the test: ELISA: rSdrG(50-597) binding to immobilized Fg. The procedure:
ELISA—Microtiter plates (Immulon 4, Dynatech Laboratories Inc.) were coated with 1 μg of Fg (Enzyme Research Labs) in PBS, pH 7.5 for 18 h at 4° C. Plates were washed three times with PBS, 0.05% Tween 20 (PBST) and blocked with 1% (w/v) bovine serum albumin (BSA) for 1 h at room temperature. Plates were washed three times with PBST and rSdrG(50-597), diluted into PBS, was added to the wells and the plate was incubated for 1 h at room temperature. Plates were washed three times with PBST and bound rSdrG(50-597) was detected by adding a 1:2000 dilution of an anti-His-tag mAb (Clontech) in PBST, 0.1% BSA. Plates were incubated for 1 h at room temperature and then washed three times with PBST. A 1:2000 dilution of goat anti-mouse alkaline phosphatase (AP)-conjugated polyclonal antibodies (Bio-Rad) in PBST, 0.1% BSA were added to the wells and the plate was incubated for 1 h at room temperature. Plates were washed three times with PBST and developed with p-nitrophenyl phosphate (Sigma) in 1 M diethanolamine, 0.5 mM MgCl2, pH 9.0 at room temperature for ˜30 min. Plates were read at 405 nm using an ELISA plate reader (Thermomax microplate reader, Molecular Devices).
Background: In an ELISA, binding on a coated surface is turned into a signal by an enzyme label.

By Kd is commonly meant the equilibrium constant for the complex coming apart.

“Also recorded” adds a separate entry of the source.

B1: rSdrG(50-597): recombinant His-tagged A region (residues 50-597) of SdrG, a fibrinogen-binding MSCRAMM from S. epidermidis (protein)
chain: HHHHHHAEENTVQDVKDSNMDDELSDSNDQSSNEEKNDVINNSQSINTDDDNQIKKEETNSNDAIENRSKDITQSTTNVDENEATFLQKTPQDNTQLKEEVVKEPSSVESSNSSMDTAQQPSHTTINSEASIQTSDNEENSRVSDFANSKIIESNTESNKEENTIEQPNKVREDSITSQPSSYKNIDEKISNQDELLNLPINEYENKVRPLSTTSAQPSSKRVTVNQLAAEQGSNVNHLIKVTDQSITEGYDDSDGIIKAHDAENLIYDVTFEVDDKVKSGDTMTVNIDKNTVPSDLTDSFAIPKIKDNSGEIIATGTYDNTNKQITYTFTDYVDKYENIKAHLKLTSYIDKSKVPNNNTKLDVEYKTALSSVNKTITVEYQKPNENRTANLQSMFTNIDTKNHTVEQTIYINPLRYSAKETNVNISGNGDEGSTIIDDSTIIKVYKVGDNQNLPDSNRIYDYSEYEDVTNDDYAQLGNNNDVNINFGNIDSPYIIKVISKYDPNKDDYTTIQQTVTMQTTINEYTGEFRTASYDNTIAFSTSSGQGQGDLPPE
As for B1, the “FpA release by thrombin” value in test [1] was “no apparent interference”. The “FpB release by thrombin” value in test [1] (1:1 ratio of rSdrG(50-597) to Fg) was “significant decrease”; in test [1] (5:1 ratio (1.5 μM rSdrG(50-597))), “decrease in the amount of FpB released; also recorded: effectively able to inhibit the release of FpB”. The “Percentage of FpB released” value in test [1] (SdrG:Fg 1:1, 15 min) is given as 65.4%; in test [1] (SdrG:Fg 1:1, 60 min), 45.2%; in test [1] (SdrG:Fg 2:1, 15 min) it was 13.9%; in test [1] (SdrG:Fg 2:1, 60 min), 17.4%; in test [1] (SdrG:Fg 5:1, 15 min), <0.001%; in test [1] (SdrG:Fg 5:1, 60 min), <0.001%. For the same molecule, the Kd in test [2] was 140 nM. Besides, the “binding to immobilized Fg” value with immobilized Fg is reported as “bound immobilized Fg”.
